Results: US9278119B2, “Treatment of prostate cancer and a method for determining the prognosis for prostate cancer patients” (WNTRESEARCH AB, priority 2011, dated 2016)
Where no end group is shown, it is not given here. The star is where a group is joined. For = O=C*

B1: rWnt5a: recombinant Wnt5a protein (rWnt5a, R&D Systems, Minneapolis, Minn.) (protein, UniProt P41221 62-380, looked up)
Protein Wnt-5a: IIGAQPLCSQLAGLSQGQKKLCHLYQDHMQYIGEGAKTGIKECQYQFRHRRWNCSTVDNTSVFGRVMQIGSRETAFTYAVSAAGVVNAMSRACREGELSTCGCSRAARPKDLPRDWLWGGCGDNIDYGYRFAKEFVDARERERIHAKGSYESARILMNLHNNEAGRRTVYNLADVACKCHGVSGSCSLKTCWLQLADFRKVGDALKEKYDSAAAMRLNSRGKLVQVNSRFNSPTTQDLVYIDPSPDYCVRNESTGSLGTQGRLCNKTSEGMDGCELMCCGRGYDQFKTVQTERCHCKFHWCCYVKCKKCTEIVDQFVCK

Key:
22Rv1 cells = experiment: Matrigel invasion assay, 22Rv1 cells; type: cell-based, human; conditions: 24 h
Method: (§1) Four human PCa cell lines LNCaP, 22Rv1, PC-3, and DU145 were purchased from American Type Culture Collection [ATCC] (Manassas, Va.). The immortalized PNT2 normal human prostate epithelial cells (cat No. 95012613) were obtained from European Collection of Cell Cultures (ECACC), (Sigma-Aldrich, St. Louis, Mo.). LNCaP, 22Rv1, DU145 and PNT2 cells lines were cultured in RPMI-1640 medium, supplemented with 10% fetal bovine serum (FBS) and 1% pest (penicillin and streptomycin). PC-3 cells were grown in Hyclone Ham's F12 medium supplemented with 10% FBS and 1% pest. All in vitro experiments were performed when cells were ˜70% confluent. For invasion assay experiments cells were grown in serum free medium (SFM) for 24 hours. RPMI-1640 medium (R0883), FBS (F6178), penicillin streptomycin (P0781) were purchased from Sigma-Aldrich, whereas Ham's F12 medium (SH30026.01) was obtained from Thermo-Scientific (Waltham, Mass.). All cell lines were regularly tested for the absence of mycoplasma infection.
(§2) Cell invasion capacities were measured in a standard commercial invasion assay. In this study the inventors used BD BioCoat™ Matrigel™ Invasion Chambers (BD Biosciences, Bedford, Mass.) in accordance with the manufacturer's protocol. […] Invaded cells were counted either in an 460 inverted microscope or in Olympus BX51 Fluorescence Microscope (Olympus optical Co. Ltd, Japan).

DU145 cells = experiment: Matrigel invasion assay, DU145 cells; type: cell-based, human; conditions: 24 h
Method: as §1, §2

LNCaP cells = experiment: Matrigel invasion assay, LNCaP cells; type: cell-based, human; conditions: rWnt5a 0.4 μg/ml, 24 h, vs vehicle; FIG. 3B
Method: as §1, §2

PC3 cells [1] = experiment: Matrigel invasion assay, PC3 cells; type: cell-based, human; conditions: rWnt5a 0.4 μg/ml, 24 h, vs vehicle; FIG. 3B
Method: as §1, §2

PC3 cells [2] = conditions: addition of rWnt5a to PC3 cells; report by Wang et al [26]; cited from earlier work

Molecule	relative invasion (22Rv1 cells; Foxy-5 100 microM, FIG. 6A)	relative invasion (DU145 cells; Foxy-5 100 microM, FIG. 6B)	relative invasion (22Rv1 cells; rWnt5a 0.4 μg/ml, vs vehicle, p=0.0001, FIG. 3B)	relative invasion (DU145 cells; rWnt5a 0.4 μg/ml, vs vehicle, p<0.0001, FIG. 3B)	relative invasion (LNCaP cells)	relative invasion (PC3 cells [1])	response in migration wound scratch assay (PC3 cells [2])
formylated derivative of MDGCEL (SEQ. ID. NO. 2) (For-MDGCEL; listed as Homo sapiens) [Foxy-5, the N-formylated hexapeptide Foxy5, Wnt5a derived peptide]	significantly inhibited the invasion	significantly inhibited the invasion	–	–	–	–	–
B1	–	–	decreased the invasive behavior	decreased the invasive behavior	Neither the LNCaP nor the PC3 cells did respond	Neither the LNCaP nor the PC3 cells did respond	did not respond
